Among the data in patent US20250243261A1 are Wuhan pseudotyped lentivirus IC50 and Kd values, retold here.

Experiment [1] has as its target SARS-CoV-2 Wuhan Spike on pseudotyped lentivirus (SARS-CoV-2 Wuhan-Hu-1) (UniProt P0DTC2). Kind of experiment: cell-based or functional assay.
For experiment [2], the target named is HA H4 Hubei, A/swine/Hubei/06/2009(H4N1) (Influenza A virus). Kind of experiment: BLI, Fab. A general note: BLI is a label-free optical method that tracks binding on a fibre tip over time.
For experiment [3], the target named is HA H7 HK17, A/Hong Kong/125/2017(H7N9) (Influenza A virus). Kind of experiment: BLI, Fab.

LY-1404 WT IgG (antibody), sequence (VH): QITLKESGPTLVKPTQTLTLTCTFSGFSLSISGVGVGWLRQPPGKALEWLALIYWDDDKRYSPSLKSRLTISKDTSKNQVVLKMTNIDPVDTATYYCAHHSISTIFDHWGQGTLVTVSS
LY-1404 WT IgG (antibody), sequence (VL): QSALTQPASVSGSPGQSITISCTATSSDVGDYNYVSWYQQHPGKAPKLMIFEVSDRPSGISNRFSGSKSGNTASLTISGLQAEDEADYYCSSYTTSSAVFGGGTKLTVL

On to LY-1404 WT IgG (antibody), for which the Wuhan pseudotyped lentivirus IC50 in experiment [1] amounted to 3.1 µg/mL.

Consider MEDI8852 WT Fab, for which the figures for the Kd in experiment [2] and in experiment [3] were 560 pM and 200 pM, respectively.
